Assay results taken from paper PMC4256095.

Biological target: actin (UniProt P68135)
Experiment: other fluorescence titration

recombinant human cofilin, sequence (P23528 whole entry): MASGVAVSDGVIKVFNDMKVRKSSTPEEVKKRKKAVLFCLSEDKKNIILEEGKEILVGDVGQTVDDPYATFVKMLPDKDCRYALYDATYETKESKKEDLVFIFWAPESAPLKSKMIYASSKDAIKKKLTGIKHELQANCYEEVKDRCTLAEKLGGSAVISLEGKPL

Substance “recombinant human cofilin (from UniProt P23528 1-166) (natural protein)” has a binding density (νcof) at 3 µM cofilin of over 0.9.
